Measurements published in the supplement of paper PMC11865577.

Key:
Test in all cases: pull-down binding Z-score (relative to library population); higher = stronger binding
Settings in all cases: RNA library: Library-2
[1] = system: TO-N3 (biotin conjugate)
Outline: (§1)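 Streptavidin beads with 100 pmol of biotin-conjugated small molecule were incubated for 60 min at 25 °C with 1 μg of heat-folded Cy5- or Cy3-end-labelled RNA library in phosphate/NaCl/KCl buffer. Bound RNA was eluted in hot SDS after three washes and hybridised to a DNA barcode microarray at 55.5 °C for 20 h. Each binding score is a library-referenced Z-score, computed after beads-only subtraction and a trimmed mean of barcoded replicate probes.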

[2] = system: TO-N3-2 (biotin conjugate)
Outline: as §1

[3] = system: TO-3-N3-2 (biotin conjugate)
Outline: as §1

[4] = system: TO-3-N3 (biotin conjugate)
Outline: as §1

Row | Sequence | pull-down binding Z-score [1] | pull-down binding Z-score [2] | pull-down binding Z-score [3] | pull-down binding Z-score [4]
1 | ACAACAGGAGUCACCUUUUGU [DMSMaPseq_invitro_SARS-CoV-2_Motif_108] | -1.15 | -1.07 | -0.592 | -0.879
2 | ACAACCCUUAAGGGUGU [SHAPE_invivo_SARS-CoV-2_Motif_115] | -1.19 | -1.1 | -0.665 | -0.802
3 | ACAAGAGGGUGUGGUUGAUUAUGGUGCUAGAUUUUACUUUUACACCAGUAAAACAACUGUAGCGUCACUUAUCAACACACUUAACGAUCUAAAUGAAACUCUUGU | 0.447 | 0.277 | 0.984 | 0.233
4 | ACAAGAUGAUAAGAAAAUCAAAGCUUGU | -1.1 | -0.969 | -0.459 | -0.879
5 | ACAAGGCUAUUGAUGGUGGUGUCACUCGUGACAUAGCAUCUACAGAUACUUGU [SHAPE_invitro_SARS-CoV-2_Motif_170] | -0.449 | -0.052 | -0.287 | -0.355
6 | ACAAGUUGCAAUUUACAAGUCUUGAAAUUCCACGUAGGAAUGUGGCAACUUUACAAGCUGAAAAUGUAACAGGACUCUUUAAAGAUUGU | -0.143 | 0.121 | 0.247 | -0.302
7 | ACAAUGGCAGACCUCGUCUAUGCUUUAAGGCAUUUUGAUGAAGGUAAUUGU | -0.93 | -1.12 | -0.242 | -0.812
8 | ACACAUUCUGACAAAUUCACAGAUGGUGU [SHAPE_invitro_SARS-CoV-2_Motif_350] | -0.471 | 0.264 | -0.395 | -0.577
9 | ACACGGUGUUUAAACCGUGU | 0.0341 | -1.15 | -0.00656 | 0.59
10 | ACACUAAUUCUUUCACACGUGGUGU [DMSMaPseq_invitro_SARS-CoV-2_Motif_381] | -0.398 | -0.973 | -0.0877 | -0.0462
11 | ACACUCUACGUGU | -1.78 | -1.93 | -0.979 | -1.14
12 | ACAGAAUGCUGU | -1.14 | -1.19 | -0.472 | -0.821
13 | ACAGACUUCAUUAAGAUGUGGUGCUUGCAUACGUAGACCAUUCUUAUGUUGUAAAUGCUGUUACGACCAUGUCAUAUCAACAUCACAUAAAUUAGUCUUGUCUGU | -0.512 | -0.489 | -0.127 | -0.753
14 | ACAGAGACUGAUAGUAAGUUCUCUGU [IAV_invivo_NA_6_Motif_16+IAV_invivo_NA_6_Motif_16] | -0.696 | -1.08 | -0.328 | -0.363
15 | ACAGAUCUUUACCAGGAGUUUUCUGU | -1.28 | -1.3 | -0.827 | -0.933
16 | ACAGCAGAGUGCUGU [IAV_invivo_M1_M2_7_Motif_17+IAV_invivo_M1_M2_7_Motif_17] | -0.887 | -1.37 | -0.794 | -0.599
17 | ACAGGAGUCACCUUUUGU [SHAPE_invitro_SARS-CoV-2_Motif_112] | -0.78 | -0.669 | -0.599 | -0.709

Row | Sequence | pull-down binding Z-score [1] | pull-down binding Z-score [2] | pull-down binding Z-score [3] | pull-down binding Z-score [4]
18 | ACAGGGACUACUCCCACCCAAGAAUAGCAUAGAUGCCUUCAAACUCAACAUUAAAUUGUUGGGUGUUGGUGGCAAACCUUGUAUCAAAGUAGCCACUGU | -0.503 | -0.183 | 0.116 | -0.466
19 | ACAGGUUUUAUCGAACCUGU [IAV_invivo_PB1_2_Motif_25+IAV_invivo_PB1_2_Motif_25] | -0.828 | -1.54 | -0.571 | -0.147
20 | ACAGUAUGUCUUUUGUACUGU | -0.525 | -1.28 | -0.336 | -0.159
21 | ACAGUCUGUACCGUCUGCGGUAUGUGGAAAGGUUAUGGCUGU | -0.273 | 0.213 | -0.231 | -0.239
22 | ACAUACUAGGACCUCUUUCUGCUCAAACUGGAAUUGCCGUUUUAGAUAUGU [DMSMaPseq_invitro_SARS-CoV-2_Motif_193] | -0.989 | -0.421 | -0.407 | -0.933
23 | ACAUAGCAGUGGUGUUACCCGUGAACUCAUGCGUGAGCUUAACGGAGGGGCAUACACUCGCUAUGU | -0.015 | 0.0437 | -0.167 | -0.138
24 | ACAUCAGCUUGUGUUUUGGCUGCUGAAUGU | -0.774 | -0.485 | -0.534 | -0.623
25 | ACAUCUCUGGCAUUAAUGCUUCAGUUGU [SHAPE_invivo_SARS-CoV-2_Motif_471] | -1.33 | -1.06 | -0.583 | -1.08
26 | ACAUGCCAAUUUAGAUUCUUGCAAAAGAGUCUUGAACGUGGUGUGU | -1.48 | -1.62 | -0.712 | -1.07
27 | ACAUUACACCAUGU [SHAPE_invivo_SARS-CoV-2_Motif_439] | -1.07 | -0.865 | -0.6 | -0.779
28 | ACAUUAGAUAAUCAAGAUCUCAAUGGUAACUGGUAUGAUUUCGGUGAUUUCAUACAAACCACGCCAGGUAGUGGAGUUCCUGUUGUAGAUUCUUAUUAUUCAUUGU | 0.235 | 0.46 | 0.102 | -0.0358
29 | ACAUUUUAUCUUACUAAUGAUGU [SHAPE_invivo_SARS-CoV-2_Motif_191] | -0.428 | -1.3 | -0.249 | -0.182
30 | ACCAACCACCACAAACCUCUAUCACCUCAGCUGUUUUGCAGAGUGGUUUUAGAAAAAUGGCAUUCCCAUCUGGU | 0.386 | 0.456 | 0.384 | 0.0884
31 | ACCAAUGUGCUAUGAGGCCCAAUUUCACUAUUAAGGGUUCAUUCCUUAAUGGUUCAUGUGGUAGUGUUGGU [SHAPE_invivo_SARS-CoV-2_Multi_27_ComplexLevel_1] | -0.295 | -0.569 | -0.186 | -0.261
32 | ACCACCAAUUAAAGAUUUUGGUGGU [SHAPE_invitro_SARS-CoV-2_Motif_434] | -0.123 | -1.4 | -0.49 | 0.206
33 | ACCAGGAGUUUUCUGUGGUGUAGAUGCUGUAAAUUUACUUACUAAUAUGUUUACACCACUAAUUCAACCUAUUGGU [SHAPE_invitro_SARS-CoV-2_Motif_181] | -0.0352 | -0.878 | -0.13 | -0.0454
34 | ACCAGUUAACUGGU [SHAPE_invitro_SARS-CoV-2_Motif_121] | -1.1 | -1.19 | -0.55 | -0.713
